Test results published in patent US11795460B2, “Compositions and methods for TTR gene editing and treating ATTR amyloidosis” (Intellia Therapeutics, Inc., priority 2017, dated 2023).
Strand notation (5' to 3'): a small letter for the sugar, then the base; units joined by * are phosphorothioate-linked, units joined directly phosphodiester-linked; [ ] holds rarer units or linkages, { } end groups; capitals alone tell only the bases. m = 2'-O-methyl; r = 2'-OH (RNA)

B1: G000481: TTR sgRNA modified sequence, Human, SEQ ID No. 88; guide sequence of CR003345 (nucleic acid)
guide: mU*mC*mU*rArGrArArCrUrUrUrGrArCrCrArUrCrArGrGrUrUrUrUrArGrAmGmCmUmAmGmAmAmAmUmAmGmCrArArGrUrUrArArArArUrArArGrGrCrUrArGrUrCrCrGrUrUrArUrCrAmAmCmUmUmGmAmAmAmAmAmGmUmGmGmCmAmCmCmGmAmGmUmCmGmGmUmGmCmU*mU*mU*mU
B2: G000480: TTR sgRNA modified sequence, Human, SEQ ID No. 87; guide sequence of CR003353 (nucleic acid)
guide: mA*mA*mA*rGrGrCrUrGrCrUrGrArUrGrArCrArCrCrUrGrUrUrUrUrArGrAmGmCmUmAmGmAmAmAmUmAmGmCrArArGrUrUrArArArArUrArArGrGrCrUrArGrUrCrCrGrUrUrArUrCrAmAmCmUmUmGmAmAmAmAmAmGmUmGmGmCmAmCmCmGmAmGmUmCmGmGmUmGmCmU*mU*mU*mU
B3: G000499: TTR sgRNA modified sequence, Human, SEQ ID No. 106; guide sequence of CR005303 (nucleic acid)
guide: mU*mG*mA*rArUrCrCrArArGrUrGrUrCrCrUrCrUrGrArGrUrUrUrUrArGrAmGmCmUmAmGmAmAmAmUmAmGmCrArArGrUrUrArArArArUrArArGrGrCrUrArGrUrCrCrGrUrUrArUrCrAmAmCmUmUmGmAmAmAmAmAmGmUmGmGmCmAmCmCmGmAmGmUmCmGmGmUmGmCmU*mU*mU*mU
B4: G000486: TTR sgRNA modified sequence, Human, SEQ ID No. 93; guide sequence of CR003339 (nucleic acid)
guide: mA*mC*mA*rCrArArArUrArCrCrArGrUrCrCrArGrCrArGrUrUrUrUrArGrAmGmCmUmAmGmAmAmAmUmAmGmCrArArGrUrUrArArArArUrArArGrGrCrUrArGrUrCrCrGrUrUrArUrCrAmAmCmUmUmGmAmAmAmAmAmGmUmGmGmCmAmCmCmGmAmGmUmCmGmGmUmGmCmU*mU*mU*mU
B5: G000494: TTR sgRNA modified sequence, Human, SEQ ID No. 101; guide sequence of CR003360 (nucleic acid)
guide: mG*mU*mG*rArGrUrCrUrGrGrArGrArGrCrUrGrCrArUrGrUrUrUrUrArGrAmGmCmUmAmGmAmAmAmUmAmGmCrArArGrUrUrArArArArUrArArGrGrCrUrArGrUrCrCrGrUrUrArUrCrAmAmCmUmUmGmAmAmAmAmAmGmUmGmGmCmAmCmCmGmAmGmUmCmGmGmUmGmCmU*mU*mU*mU

How the values were obtained:
human TTR sequence = test: Liver editing in humanized TTR mice dosed with LNP formulations (Table 26); assay type: in vivo, mouse; conditions: for % Editing: Table 26, liver editing, LNP Formulation Numbers 6-16, 1 mg/kg (total RNA content); for Liver editing: LNP Formulation Numbers 1-5, Cas9 mRNA SEQ ID NO:2, 2 mg/kg total RNA, mean values, FIG. 9
Description: Unless otherwise noted, CD-1 female mice, ranging from 6-10 weeks of age were used in each study. Animals were weighed and grouped according to body weight for preparing dosing solutions based on group average weight. LNPs were dosed via the lateral tail vein in a volume of 0.2 mL per animal (approximately 10 mL per kilogram body weight). […] Body weight was measured at twenty-four hours post-administration, and animals were euthanized at various time points by exsanguination via cardiac puncture under isoflourane anesthesia. Blood was collected into serum separator tubes or into tubes containing buffered sodium citrate for plasma as described herein. For studies involving in vivo editing, liver tissue was collected from the median lobe or from three independent lobes (e.g., the right median, left median, and left lateral lobes) from each animal for DNA extraction and analysis.
To quantitatively determine the efficiency of editing at the target location in the genome, sequencing was utilized to identify the presence of insertions and deletions introduced by gene editing.
Primers were designed around the target site within the gene of interest (e.g. TTR), and the genomic area of interest was amplified.
Additional PCR was performed per the manufacturer's protocols (Illumina) to add chemistry for sequencing. The amplicons were sequenced on an Illumina MiSeq instrument. The reads were aligned to a reference genome (e.g., the human reference genome (hg38), the cynomologus reference genome (mf5), the rat reference genome (rn6), or the mouse reference genome (mm10)) after eliminating those having low quality scores. The resulting files containing the reads were mapped to the reference genome (BAM files), where reads that overlapped the target region of interest were selected and the number of wild type reads versus the number of reads which contain an insertion, substitution, or deletion was calculated.
The editing percentage (e.g., the “editing efficiency” or “percent editing” or “indel frequency”) is defined as the total number of sequence reads with insertions/deletions (“indels”) or substitutions over the total number of sequence reads, including wild type.
Mice humanized with respect to the TTR gene were dosed with LNP formulations 701-704 containing the guides indicated in Table 25 (5 mice per formulation). These humanized TTR mice were engineered such that a region of the endogenous murine TTR locus was deleted and replaced with an orthologous human TTR sequence so that the locus encodes a human TTR protein. For comparison, 6 mice with murine TTR were dosed with LNP700, containing a guide (G000282) targeting murine TTR. […]

[1] = tested on: potential off-target sites; test: Targeted amplicon sequencing of potential off-target sites in PHH treated with LNPs (Tables 31-33); assay type: cell-based, human; conditions: for Indel Frequency (using LNP with 100 ng Cas9 mRNA and 14.68 nM gRNA) / Indel rate at the on-target site / Indels at in silico predicted off-target sites / Number of potential off-target sites identified by the oligo insertion assay at which indels were detected: PHH treated with LNP; for Indel Frequency (using LNP with 100 ng Cas9 mRNA and 14.68 nM gRNA): NGS targeted amplicon sequencing; for Indel rate at the on-target site / Indels at in silico predicted off-target sites / Number of potential off-target sites identified by the oligo insertion assay at which indels were detected: 100 ng Cas9 mRNA (SEQ ID NO:1), near-saturating dose; for Indel rate at the on-target site: gRNA 14.68 nM; for Number of potential off-target sites identified by the oligo insertion assay at which indels were detected: indels at low levels; for On-target indel rate at highest concentration without detected off-target sites / Highest gRNA concentration at which the potential off-target sites were no longer detected: PHH; for On-target indel rate at highest concentration without detected off-target sites: G000480 at 0.57 nM, G000486 at 15.51 nM gRNA; for Highest gRNA concentration at which the potential off-target sites were no longer detected: LNP dose response, 11 points 0.001-46.55 nM gRNA
Description: The HEK293_Cas9 cells used in Example 5 for detecting potential off-targets constitutively overexpress Cas9, leading to a higher number of potential off-target “hits” as compared to a transient delivery paradigm in various cell types. […] Accordingly, potential off-target sites identified by an oligo insertion method as used in Example 5 may be validated using targeted sequencing of the identified potential off-target sites.
In one approach, primary hepatocytes are treated with LNPs comprising Cas9 mRNA and a sgRNA of interest (e.g., a sgRNA having potential off-target sites for evaluation). The primary hepatocytes are then lysed and primers flanking the potential off-target site(s) are used to generate an amplicon for NGS analysis. Identification of indels at a certain level may validate potential off-target site, whereas the lack of indels found at the potential off-target site may indicate a false positive in the HEK293_Cas9 cell assay.
Following the identification of potential off-target sites in […] via the oligo insertion assay, certain potential sites were further evaluated by targeted amplicon sequencing, e.g., as described in Example 6. In addition to the potential off-target sites identified by the oligo insertion strategy, additional potential off-target sites identified by in silico prediction were included in the analysis.
To this end, PHH were treated with LNPs comprising 100 ng of Cas9 mRNA (SEQ ID NO:1) and the gRNA of interest at 14.68 nM (in a 1:1 ratio by weight), as described in Example 4. The LNPs were prepared using the cross-flow procedure described above and purified and concentrated using PD-10 columns and Amicon centrifugal filter units, respectively. The LNPs were formulated with an N:P ratio of 6.0 and contained Lipid A, Cholesterol, DSPC, and PEG2k-DMG in a 50:38:9:2 molar ratio, respectively. Following LNP treatment, isolated genomic DNA was analyzed by NGS (e.g., as described in Examples 1 and 6) to determine whether indels could be detected at the potential off-target site, which would be indicative of a Cas9-mediated cleavage event. Tables 31 and 32 show the potential off-target sites that were evaluated for the gRNAs G000480 and G000486, respectively.
As shown in FIGS. 21A-B and 22A-B and Table 33 below, indels were detected at low levels for only two of the potential off-target sites identified by the oligo insertion assay for G000480, and only one for G000486. […] Further, indels were only detected at these sites using a near-saturating dose of LNP, as the indel rates observed at the on-target sites for G000480 and G000486 were ˜97% and ˜91%, respectively (See Table 33).
A dose response assay was then performed in order to determine the highest dose of LNP in which no off-targets were detected. PHH were treated with LNPs comprising either G000480 or G000486 as described in Example 4. The doses ranged across 11 points with respect to gRNA concentration (0.001 nM, 0.002 nM, 0.007 nM, 0.02 nM, 0.06 nM, 0.19 nM, 0.57 nM, 1.72 nM, 5.17 nM, 15.51 nM, and 46.55 nM).

[2] = Off-Target site INS-OT.4 (of the respective guide)

Molecule | % Editing (human TTR sequence) | Indel Frequency (using LNP with 100 ng Cas9 mRNA and 14.68 nM gRNA) ([1]; Off-Target site INS-OT.2) | Indel Frequency (using LNP with 100 ng Cas9 mRNA and 14.68 nM gRNA) [1, 2] | Indel Frequency (using LNP with 100 ng Cas9 mRNA and 14.68 nM gRNA) ([1]; On-Target site) | Indel rate at the on-target site [1] | Indels at in silico predicted off-target sites [1] | Number of potential off-target sites identified by the oligo insertion assay at which indels were detected [1] | On-target indel rate at highest concentration without detected off-target sites [1] | Highest gRNA concentration at which the potential off-target sites were no longer detected [1] | Liver editing (human TTR sequence)
B1 | 61.28% | – | – | – | – | – | – | – | – | –
B2 | – | 1.43% | 0.97% | 97.33% | ~97% | No indels were detected | two | 84.60% | 0.57 nM | –
B3 | 65.66% | – | – | – | – | – | – | – | – | ~60%
B4 | – | – | 0.47% | 91.33% | ~91% | No indels were detected | one | 89.50% | 15.51 nM | –
B5 | – | – | – | – | – | – | – | – | – | ~60%
